Results published in patent US20230002480A1.

Tests used:
Experiment in all cases: cell-based or functional assay
[1] = molecular target: HIV-1 Env of pseudovirus 1012_11_TC21_3257 (HIV-1)
[2] = molecular target: HIV-1 Env of pseudovirus 1056_10_TA11_1826 (HIV-1)
[3] = molecular target: HIV-1 Env of pseudovirus 211-9 (HIV-1)
[4] = molecular target: HIV-1 Env of pseudovirus 263-8 (HIV-1)
[5] = molecular target: HIV-1 Env of pseudovirus 3103.v3.c10 (HIV-1)
[6] = molecular target: HIV-1 Env of pseudovirus 3415.v1.c1 (HIV-1)
[7] = molecular target: HIV-1 Env of pseudovirus 6540.v4.c1 (HIV-1)
[8] = molecular target: HIV-1 Env of pseudovirus 6952.v1.c20 (HIV-1)
[9] = molecular target: HIV-1 Env of pseudovirus 7030102001E5(Rev-) (HIV-1)
[10] = molecular target: HIV-1 Env of pseudovirus C3347.c11 (HIV-1)
[11] = molecular target: HIV-1 Env of pseudovirus CAP210.2.00.E8 (HIV-1)
[12] = molecular target: HIV-1 Env of pseudovirus CNE17 (HIV-1)
[13] = molecular target: HIV-1 Env of pseudovirus CNE21 (HIV-1)
[14] = molecular target: HIV-1 Env of pseudovirus CNE58 (HIV-1)
[15] = molecular target: HIV-1 Env of pseudovirus CNE8 (HIV-1)
[16] = molecular target: HIV-1 Env of pseudovirus Ce0393_C3 (HIV-1)
[17] = molecular target: HIV-1 Env of pseudovirus Ce1176_A3 (HIV-1)
[18] = molecular target: HIV-1 Env of pseudovirus Ce2010_F5 (HIV-1)
[19] = molecular target: HIV-1 Env of pseudovirus HIV-0013095-2.11 (HIV-1)
[20] = molecular target: HIV-1 Env of pseudovirus HIV-16845-2.22 (HIV-1)
[21] = molecular target: HIV-1 Env of pseudovirus Q461.e2 (HIV-1)
[22] = molecular target: HIV-1 Env of pseudovirus Q769.d22 (HIV-1)
[23] = molecular target: HIV-1 Env of pseudovirus Q842.d12 (HIV-1)
[24] = molecular target: HIV-1 Env of pseudovirus R3265.c06 (HIV-1)
[25] = molecular target: HIV-1 Env of pseudovirus REJO4541.67 (HIV-1)
[26] = molecular target: HIV-1 Env of pseudovirus T250-4 (HIV-1)
[27] = molecular target: HIV-1 Env of pseudovirus T257-31 (HIV-1)
[28] = molecular target: HIV-1 Env of pseudovirus T278-50 (HIV-1)
[29] = molecular target: HIV-1 Env of pseudovirus WITO4160.33 (HIV-1)
[30] = molecular target: HIV-1 Env of pseudovirus X2088_c9 (HIV-1)
[31] = molecular target: HIV-1 Env of pseudovirus ZM214M.PL15 (HIV-1)
[32] = molecular target: HIV-1 Env of pseudovirus ZM53M.PB12 (HIV-1)
[33] = molecular target: MuLV envelope (negative control pseudovirus)

B1: N49P22 (antibody, V domains shown)
V domain 1: HIQLLQSGPQVKKSGDTVRISCETSGYNFVDSRIHWVRQTPEKRLRWMGWINPLQGGVNYAPEFQGRIRMTRDTFIDTVYVDLSGLTPADTAYYYCARGIDGKSYPFHFWGHGTRVTVFS
V domain 2: RFALTQPASVSGSPGQTITITCAGGSVSWFHFPPGKTPRLIIYESSKRPSGVSPRFSGSQSGSTASLIISGLQSDDEGTYFCSILEFFGRGTLVTVLS
B1 gave an IC50 [1] of 15.7 µg/mL, an IC80 [1] of over 50 µg/mL and an MPI [1] of 53. It also gave an IC50 [2] of 2.99 µg/mL, an IC80 [2] of over 50 µg/mL and an MPI [2] of 69. It also gave an IC50 [3] of over 50 µg/mL, an IC80 [3] of over 50 µg/mL and an MPI [3] of 18. It also gave an IC50 [4] of 1.83 µg/mL, an IC80 [4] of 18.5 µg/mL and an MPI [4] of 89. The IC50 [5] was over 50 µg/mL, the IC80 [5] was over 50 µg/mL and the MPI [5] was 16. For the same binder, the IC50 [6] was 0.198 µg/mL, the IC80 [6] was 1.41 µg/mL and the MPI [6] was 96. The IC50 [7] was over 50 µg/mL, the IC80 [7] was over 50 µg/mL and the MPI [7] was 29. It also gave an IC50 [8] of 33.2 µg/mL, an IC80 [8] of over 50 µg/mL and an MPI [8] of 56. The IC50 [9] was over 50 µg/mL, the IC80 [9] was over 50 µg/mL and the MPI [9] was 21. It also gave an IC50 [10] of 1.18 µg/mL, an IC80 [10] of 12.3 µg/mL and an MPI [10] of 89. For the same binder, the IC50 [11] was over 50 µg/mL, the IC80 [11] was over 50 µg/mL and the MPI [11] was 6. For the same binder, the IC50 [12] was 46.3 µg/mL, the IC80 [12] was over 50 µg/mL and the MPI [12] was 53. For the same binder, the IC50 [13] was over 50 µg/mL, the IC80 [13] was over 50 µg/mL and the MPI [13] was 0. It also gave an IC50 [14] of 28.4 µg/mL, an IC80 [14] of over 50 µg/mL and an MPI [14] of 57. It also gave an IC50 [15] of 5.35 µg/mL, an IC80 [15] of 40.4 µg/mL and an MPI [15] of 86. It also gave an IC50 [16] of over 50 µg/mL, an IC80 [16] of over 50 µg/mL and an MPI [16] of 12. It also gave an IC50 [17] of over 50 µg/mL, an IC80 [17] of over 50 µg/mL and an MPI [17] of 23. It also gave an IC50 [18] of 2.05 µg/mL, an IC80 [18] of 11.7 µg/mL and an MPI [18] of 93. It also gave an IC50 [19] of over 50 µg/mL, an IC80 [19] of over 50 µg/mL and an MPI [19] of 9. For the same binder, the IC50 [20] was 4.6 µg/mL, the IC80 [20] was 41.9 µg/mL and the MPI [20] was 87. It also gave an IC50 [21] of 11.2 µg/mL, an IC80 [21] of over 50 µg/mL and an MPI [21] of 66. The IC50 [22] was 0.043 µg/mL, the IC80 [22] was 0.259 µg/mL and the MPI [22] was 100. For the same binder, the IC50 [23] was 0.079 µg/mL, the IC80 [23] was 0.359 µg/mL and the MPI [23] was 100. It also gave an IC50 [24] of 3.58 µg/mL, an IC80 [24] of over 50 µg/mL and an MPI [24] of 67. It also gave an IC50 [25] of 0.792 µg/mL, an IC80 [25] of 12.1 µg/mL and an MPI [25] of 84. The IC50 [26] was over 50 µg/mL, the IC80 [26] was over 50 µg/mL and the MPI [26] was 5. The IC50 [27] was over 50 µg/mL, the IC80 [27] was over 50 µg/mL and the MPI [27] was 43. It also gave an IC50 [28] of over 50 µg/mL, an IC80 [28] of over 50 µg/mL and an MPI [28] of 25. The IC50 [29] was 4.86 µg/mL, the IC80 [29] was over 50 µg/mL and the MPI [29] was 74. The IC50 [30] was over 50 µg/mL, the IC80 [30] was over 50 µg/mL and the MPI [30] was 8. The IC50 [31] was over 50 µg/mL, the IC80 [31] was over 50 µg/mL and the MPI [31] was 25. The IC50 [32] was 1.2 µg/mL, the IC80 [32] was 11.8 µg/mL and the MPI [32] was 91. The IC50 [33] was over 50 µg/mL, the IC80 [33] was over 50 µg/mL and the MPI [33] was 8.

B2: N49P23 (antibody, V domains shown)
VH: QVRLVQSGAGARKTGASMKLSCSTSGYTFTTHHGHFINWVRQARGQGLEWMGWMNPMTGQMNIEGKFQGRVTLTRDIYSDTAYMEMTRLTTGDTGTYYCARGDFGQNYPFHYWGQGSLVIVSS
VL: LSALTQPASVSGSPGQSVTISCSGTNRYLVSWYQQHPDKAPKLIIYDDNKRPSGISDRFSASRPDDTASLTISGLQTGDEATYWCASYERFGGGTRLTVLS
Binder B2 has an IC50 [1] of 0.013 µg/mL, an IC80 [1] of 0.085 µg/mL and an MPI [1] of 100. It also gave an IC50 [2] of 0.075 µg/mL, an IC80 [2] of 0.483 µg/mL and an MPI [2] of 100. The IC50 [3] was over 50 µg/mL, the IC80 [3] was over 50 µg/mL and the MPI [3] was 14. It also gave an IC50 [4] of 0.012 µg/mL, an IC80 [4] of 0.096 µg/mL and an MPI [4] of 100. The IC50 [5] was 43.8 µg/mL, the IC80 [5] was over 50 µg/mL and the MPI [5] was 54. For the same binder, the IC50 [6] was 0.054 µg/mL, the IC80 [6] was 0.19 µg/mL and the MPI [6] was 100. For the same binder, the IC50 [7] was over 50 µg/mL, the IC80 [7] was over 50 µg/mL and the MPI [7] was 29. The IC50 [8] was 0.007 µg/mL, the IC80 [8] was 0.023 µg/mL and the MPI [8] was 100. The IC50 [9] was 0.172 µg/mL, the IC80 [9] was 0.797 µg/mL and the MPI [9] was 100. The IC50 [10] was 0.007 µg/mL, the IC80 [10] was 0.032 µg/mL and the MPI [10] was 100. It also gave an IC50 [11] of over 50 µg/mL, an IC80 [11] of over 50 µg/mL and an MPI [11] of 2. The IC50 [12] was 0.221 µg/mL, the IC80 [12] was 0.809 µg/mL and the MPI [12] was 100. For the same binder, the IC50 [13] was over 50 µg/mL, the IC80 [13] was over 50 µg/mL and the MPI [13] was 0. For the same binder, the IC50 [14] was over 50 µg/mL, the IC80 [14] was over 50 µg/mL and the MPI [14] was 9. The IC50 [15] was 6.35 µg/mL, the IC80 [15] was 47.3 µg/mL and the MPI [15] was 81. The IC50 [16] was over 50 µg/mL, the IC80 [16] was over 50 µg/mL and the MPI [16] was 29. The IC50 [17] was 0.297 µg/mL, the IC80 [17] was 1.38 µg/mL and the MPI [17] was 100. The IC50 [18] was 1.59 µg/mL, the IC80 [18] was 11.6 µg/mL and the MPI [18] was 91. The IC50 [19] was 0.114 µg/mL, the IC80 [19] was 0.899 µg/mL and the MPI [19] was 96. For the same binder, the IC50 [20] was over 50 µg/mL, the IC80 [20] was over 50 µg/mL and the MPI [20] was 20. The IC50 [21] was 0.099 µg/mL, the IC80 [21] was 0.464 µg/mL and the MPI [21] was 100. It also gave an IC50 [22] of 0.005 µg/mL, an IC80 [22] of 0.025 µg/mL and an MPI [22] of 100. The IC50 [23] was 0.007 µg/mL, the IC80 [23] was 0.022 µg/mL and the MPI [23] was 100. It also gave an IC50 [24] of over 50 µg/mL, an IC80 [24] of over 50 µg/mL and an MPI [24] of 0. For the same binder, the IC50 [25] was 0.008 µg/mL, the IC80 [25] was 0.05 µg/mL and the MPI [25] was 100. For the same binder, the IC50 [26] was over 50 µg/mL, the IC80 [26] was over 50 µg/mL and the MPI [26] was 0. The IC50 [27] was 0.178 µg/mL, the IC80 [27] was 1.17 µg/mL and the MPI [27] was 100. It also gave an IC50 [28] of over 50 µg/mL, an IC80 [28] of over 50 µg/mL and an MPI [28] of 22. The IC50 [29] was 0.045 µg/mL, the IC80 [29] was 0.205 µg/mL and the MPI [29] was 100. For the same binder, the IC50 [30] was over 50 µg/mL, the IC80 [30] was over 50 µg/mL and the MPI [30] was 10. It also gave an IC50 [31] of 0.061 µg/mL, an IC80 [31] of 0.614 µg/mL and an MPI [31] of 100. It also gave an IC50 [32] of 0.135 µg/mL, an IC80 [32] of 0.651 µg/mL and an MPI [32] of 100. For the same binder, the IC50 [33] was over 50 µg/mL, the IC80 [33] was over 50 µg/mL and the MPI [33] was 9.
